# Test results reported in US20240207461A1, “RADIOACTIVE ANTITUMOR AGENT” (NIHON MEDI-PHYSICS CO., LTD., priority 2021, published 2024).
# Changes are numbered by the printed parent chain.
# B1: H01L03: anti-MUC5AC humanized antibody, heavy chain variable region H01 (SEQ ID NO: 1), light chain L03 (SEQ ID NO: 7), tested ^111In-labeled via DOTA-PEG-peptide (conjugate)
# VH: EVQLLESGGGLVQPGGSLRLSCAASGFTFSNYGMSWVRQAPGKGLEWVSTISNSGRYTYFPDSVKGRFTISRDNSKNTLYLQMNSLRAEDTALYYCTRHLDYANYDAMDYWGQGTLVTVSS
# VL: DIQMTQSPSSLSASVGDRVTITCRASKSVTTSDFSYMHWYQQKPGKSPKLLIYLASNLESGVPSRFSGSGSGTDFSLTISSLQPEDFATYYCQHSREFPWTFGGGTKVEIK
# modifications: 111In-DOTA-PEG-peptide label; Humanaized antibody heavy chain variable region 1 (H01); Humanaized antibody light chain variable region 3 (L03)
# B2: chimeric antibody: anti-MUC5AC chimeric antibody disclosed in Patent Literature 1 (SEQ ID NOs: 23 and 24), tested ^111In-labeled (conjugate)
# VH: EVKLVESGGVLVKSGGSLKLSCAVSGFTFSNYGMSWVRQTPEKRLEWVATISNSGRYTYFPDSVKGPFAISRDNAKNNLYLQMSSLRSADTALYYCTRHLDYANYDAMDYWGQGTSVTVSS
# VL: DIVLTQSPASLAVSLGQRATISCRASKSVTTSDFSYMHWYQQKPGQPPKLLLYLASNLESGVPDRFSGSGSGYDFYLNIHPVEEEDAATYYCQHSREFPWTFGGGTKLEIK
# modifications: 111In label; Kimeric antibody heavy chain variable region 7 (H07); Kimeric antibody light chain variable region 8 (L08)
# B3: H02L04: anti-MUC5AC humanized antibody, H02 (SEQ ID NO: 2) and L04 (SEQ ID NO: 8), tested ^111In-labeled (conjugate)
# VH: B1 VH with E1L, L5V, L11V, Q13R, V37I, S75A, T78S
# VL: DIVMTQSPDSLAVSLGERATINCKASKSVTTSDFSYLHWYQQKPGQPPKLLIYLASNLESGVPDRFSGSGSGTDFTLTISSLQAEDVAVYYCQHSREFPWTFGGGTKLEIK
# modifications: 111In label; Humanaized antibody heavy chain variable region 2 (H02); Humanaized antibody light chain variable region 4 (L04)
# B4: H04L04: anti-MUC5AC humanized antibody, H04 (SEQ ID NO: 4) and L04 (SEQ ID NO: 8), tested ^111In-labeled (conjugate)
# VH: B1 VH with A24V, K76R, S85T, L93V, L116P
# VL: B3 VL
# modifications: 111In label; Humanaized antibody heavy chain variable region 4 (H04); Humanaized antibody light chain variable region 4 (L04)
# B5: H01L04: anti-MUC5AC humanized antibody, H01 (SEQ ID NO: 1) and L04 (SEQ ID NO: 8), tested ^111In-labeled (conjugate)
# VH: B1 VH
# VL: B3 VL
# modifications: 111In label; Humanaized antibody heavy chain variable region 1 (H01); Humanaized antibody light chain variable region 4 (L04)
# Test system: SW1990 tumor-bearing mice
# Assay: SPECT-CT imaging of ^111In-labeled antibodies, VOI analysis and absorbed dose calculation
# Assay type: in vivo, Balb/c nude mice
# Conditions: 168 hr after administration
# Procedure: To find an anti-MUC5AC antibody with high tumor accumulation ability and high maximum tolerated dose, various antibodies were labeled with ^111In, administered to tumor-bearing mice, and SPECT-CT imaging was performed. Cumulative amount of radioactivity and absorbed dose in tumor and liver were calculated and compared using the obtained images.
# (§1) Human pancreatic cancer cell line SW1990 (0.7×10^7 cells) were subcutaneously administered to Balb/c nude mice (male) from the flank to the back thereof.
# (§2) When the tumor size reached about 150-300 mm^3 14 days after transplantation of SW1990, various ^111In-labeled antibodies prepared in Reference Example 1-1 were administered from the tail vein of the mice. The tumor volume was calculated from the following calculation formula.
# SPECT-CT imaging (small animal SPECT-CT apparatus: FX-3000, manufactured by Trifoil) was performed under the conditions in the following Table. The time points for imaging were 1, 6, 24, 48, 72, and 168 hr after administration. Image reconstruction was performed by the OSEM method for SPECT and the FBP method for CT. A VOI (volume of interest, three-dimensional ROI) analysis of the tumor and liver at each time point was performed. The count number per organ volume was corrected to % ID/g, the physical half-life was converted from ^111In to ^225Ac, the difference in physical half-life was corrected, and the time activity curve with the biological half-life added was obtained. The cumulative radioactivity amount was calculated from the integrated value of this time activity curve, and the absorbed dose was calculated in a sphere model (OLINDA/EXM ver2.0), and this was compared and examined for each antibody. However, for H01L03, a decrease in the time activity curve was not observed 168 hr after administration. Thus, the biological half-life was not considered and only the physical half-life was added.
# When the threshold dose of liver was assumed to be 30 Gy, the maximum tolerated dose was estimated to be 3.90 MBq with a humanized antibody (H01L03) and 0.43 MBq with a chimeric antibody. The maximum tolerated dose (MBq) was calculated by threshold dose (Gy)/absorbed dose (Gy/MBq).
# (§3) In the Table, the tumor volume was calculated assuming 150 mm^3 in the absorbed dose of SPECT. The absorbed dose of the liver was calculated based on the mean (1.15±0.14 g, n=19) of the weight of the mouse liver used in this Reference Example. The numerical value of the biodistribution was expressed by the mean±standard deviation of n=4 (however, n=3 for H02L04).
row,Molecule,decrease in the time activity curve
1,B1,not observed

# Same assay, conditions: ^111In-labeled antibodies, SPECT-CT up to 168 hr
Molecule,accumulation in the liver (comparison among antibodies),accumulation in the tumor (comparison among antibodies)
B2,highest,lowest
B1,,highest

# Same assay, conditions: half-life converted from ^111In to ^225Ac; sphere model; mean liver weight 1.15 g
row,Molecule,SPECT absorbed dose liver
1,B2,70.1 Gy/MBq
2,B1,7.7 Gy/MBq
3,B3,27.0 Gy/MBq
4,B4,35.4 Gy/MBq
5,B5,33.4 Gy/MBq

# Same assay, conditions: half-life converted from ^111In to ^225Ac; sphere model; tumor volume assumed 150 mm^3
row,Molecule,SPECT absorbed dose tumor
1,B2,9.5 Gy/MBq
2,B1,35.0 Gy/MBq
3,B3,13.7 Gy/MBq
4,B4,15.0 Gy/MBq
5,B5,15.3 Gy/MBq

# Same assay, conditions: threshold dose of liver assumed to be 30 Gy
row,Molecule,maximum tolerated dose (threshold dose/absorbed dose)
1,B2,0.43 MBq
2,B1,3.90 MBq

# Test system: SW1990 tumor-bearing mice
# Assay: Biodistribution and excretion route 168 hr after administration of ^111In-labeled antibodies
# Assay type: in vivo, Balb/c nude mice
# Conditions: 168 hr after administration
# Procedure: as §1, §2
# A graph showing the results of confirming the biodistribution and the excretion route after the completion of SPECT-CT imaging 168 hr after administration are shown in FIG. 11.
# as §3
Molecule,blood retention,excretion
B1,high,slowest

# Same assay, conditions: ^111In-labeled antibody, tail vein; mean ± SD n=4 (n=3 for H02L04)
Molecule,"biodistribution at 168 hr after administration, blood","biodistribution at 168 hr after administration, kidney","biodistribution at 168 hr after administration, liver","biodistribution at 168 hr after administration, spleen","biodistribution at 168 hr after administration, tumor"
B2,2.2 ± 0.6 % ID/g,1.8 ± 0.3 % ID/g,7.9 ± 1.9 % ID/g,5.0 ± 1.8 % ID/g,11.6 ± 0.9 % ID/g
B1,5.3 ± 1.3 % ID/g,2.5 ± 0.4 % ID/g,3.6 ± 1.7 % ID/g,5.4 ± 0.8 % ID/g,24.2 ± 3.9 % ID/g
B3,2.6 ± 2.3 % ID/g,1.4 ± 1.0 % ID/g,2.7 ± 0.7 % ID/g,4.0 ± 3.0 % ID/g,15.6 ± 6.2 % ID/g
B4,3.8 ± 0.7 % ID/g,1.6 ± 0.2 % ID/g,3.9 ± 1.4 % ID/g,3.4 ± 0.3 % ID/g,17.2 ± 4.2 % ID/g
B5,2.1 ± 0.8 % ID/g,1.1 ± 0.3 % ID/g,3.1 ± 0.9 % ID/g,3.8 ± 1.2 % ID/g,12.9 ± 2.6 % ID/g
